In the supplement of paper PMC10567573:

B1: MATN2 (parent)
chain: FSLKTFKRKSEVERAVKRMRHLST

Variants of: B1
Assay: protein stability index of a GFP-peptide fusion (GPS, HEK-293T) (PSI 1-6); higher = more stable
Conditions: c terminus: a fixed tail appended
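Also: lentivirally expressed fusions sorted by FACS into six bins by GFP to DsRed ratio, PSI derived from sequencing read proportions per bin multiplied by bin number.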

Variant | protein stability index
FSLKTFKRKSEVFRAVKRMRHLST [E13F] | 2.08
FSLKTFKRKSEVNRAVKRMRHLST [E13N] | 2.83
FSLKTFKRKSEVERAVKMMRHLST [R18M] | 1.93
FSLKTFKRKSEVERAVKPMRHLST [R18P] | 2.36
FSLKTFKRKSEVERAVKDMRHLST [R18D] | 2.8
FSLKTFKRKSEVERAVKHMRHLST [R18H] | 2.4
FSLKTFKRKSEVERAVKSMRHLST [R18S] | 2.21
FSLKTFKRKSEVERAVKAMRHLST [R18A] | 1.96
FSLKTFKRKSEVERAVKYMRHLST [R18Y] | 3.03
FSLKTFKRKSEVERAVKIMRHLST [R18I] | 2.16
FSLKTFKRKSEVERAVKQMRHLST [R18Q] | 1.93
FSLKTFKRKSEVERAVKFMRHLST [R18F] | 1.54
FSLKTFKRKSEVERAVKWMRHLST [R18W] | 2.04
FSLKTFKRKSEVERAVKKMRHLST [R18K] | 1.97
FSLKTFKRKSEVERAVKNMRHLST [R18N] | 2.52
FSLKTFKRKSEVERAVKVMRHLST [R18V] | 2.34
FSLKTFKRKSEVERAVKCMRHLST [R18C] | 1.8
FSLKTFKRKSEVERAVKLMRHLST [R18L] | 1.97
FSLKTFKRKSEVERAVKTMRHLST [R18T] | 2.26
FSLKTFKRKSEVERAVKGMRHLST [R18G] | 2.8
FSLKTFKRKSEVERAVMRMRHLST [K17M] | 2.53
FSLKTFKRKSEVERAVPRMRHLST [K17P] | 3.24
FSLKTFKRKSEVERAVLRMRHLST [K17L] | 1.92
FSLKTFKRKSEVERAVSRMRHLST [K17S] | 2.65

Variant | protein stability index
FSLKTFKRKSEVERAVHRMRHLST [K17H] | 3.01
FSLKTFKRKSEVERAVVRMRHLST [K17V] | 2.69
FSLKTFKRKSEVERAVIRMRHLST [K17I] | 2.04
FSLKTFKRKSEVERAVERMRHLST [K17E] | 2.38
FSLKTFKRKSEVERAVTRMRHLST [K17T] | 2.34
FSLKTFKRKSEVERAVQRMRHLST [K17Q] | 2.13
FSLKTFKRKSEVERAVDRMRHLST [K17D] | 2.92
FSLKTFKRKSEVERAVARMRHLST [K17A] | 2.26
FSLKTFKRKSEVERAVFRMRHLST [K17F] | 1.75
FSLKTFKRKSEVERAVYRMRHLST [K17Y] | 1.76
FSLKTFKRKSEVERAVRRMRHLST [K17R] | 1.87
FSLKTFKRKSEVERAVNRMRHLST [K17N] | 2.5
FSLKTFKRKSEVERAVCRMRHLST [K17C] | 2.35
FSLKTFKRKSYVERAVKRMRHLST [E11Y] | 2.09
FSLKTFKRKSTVERAVKRMRHLST [E11T] | 2.99
FSLKTFKRKSVVERAVKRMRHLST [E11V] | 2.38
FSLKTFKRKSEVERDVKRMRHLST [A15D] | 2.89
FSLKTFKRKSEVERWVKRMRHLST [A15W] | 2.17
FSLKTFKRKSEVERCVKRMRHLST [A15C] | 2.27
FSLKTFKRKSEVERRVKRMRHLST [A15R] | 3.91
FSLKTFKRKSEVERIVKRMRHLST [A15I] | 1.38
FSLKTFKRKSEVEREVKRMRHLST [A15E] | 2.73
FSLKTFKRKSEVERTVKRMRHLST [A15T] | 2.78
FSLKTFKRKSEVERNVKRMRHLST [A15N] | 2.81

Variant | protein stability index
FSLKTFKRKSEVERMVKRMRHLST [A15M] | 2.2
FSLKTFKRKSEVERVVKRMRHLST [A15V] | 2.27
FSLKTFKRKSEVERQVKRMRHLST [A15Q] | 2.58
FSLKTFKRKSEVERGVKRMRHLST [A15G] | 2.35
FSLKTFKRKSEVERFVKRMRHLST [A15F] | 2.94
FSLKTFKRKSEVERPVKRMRHLST [A15P] | 2.43
FSLKTFKRKSEVERKVKRMRHLST [A15K] | 2.7
FSLKTFKRKSEVERHVKRMRHLST [A15H] | 2.87
FSLKTFKRKSEVERYVKRMRHLST [A15Y] | 1.59
FSLKTFKRKSEVERSVKRMRHLST [A15S] | 2.33
FSLKTFKRKSEVERAVKRNRHLST [M19N] | 2.68
FSLKTFKRKSEVERAVKRERHLST [M19E] | 3.34
FSLKTFKRKSEVERAVKRLRHLST [M19L] | 2.31
FSLKTFKRKSEVERAVKRVRHLST [M19V] | 2.21
FSLKTFKRKSEVERAVKRKRHLST [M19K] | 3.67
FSLKTFKRKSEVERAVKRTRHLST [M19T] | 2.84
FSLKTFKRKSEVERAVKRCRHLST [M19C] | 2.61
FSLKTFKRKSEVERAVKRWRHLST [M19W] | 2.9
FSLKTFKRKSEVERAVKRARHLST [M19A] | 3.21
FSLKTFKRKSEVERAVKRIRHLST [M19I] | 4.04
FSLKTFKRKSEVERAVKRPRHLST [M19P] | 2.14
FSLKTFKRKSEVERAVKRYRHLST [M19Y] | 2.5
FSLKTFKRKSEVERAVKRRRHLST [M19R] | 4.54
FSLKTFKRKSEVERAVKRQRHLST [M19Q] | 2.57

Variant | protein stability index
FSLKTFKRKSEVERAVKRSRHLST [M19S] | 2.84
FSLKTFKRKSEVERAVKRHRHLST [M19H] | 2.89
FSLKTFKRKSEVERAVKRFRHLST [M19F] | 2.18
FSLKTFKRKSEVERAVKRDRHLST [M19D] | 2.76
FSLKTFKRKSEVERANKRMRHLST [V16N] | 2.47
FSLKTFKRKSEVERAHKRMRHLST [V16H] | 2.19
FSLKTFKRKSEVERAFKRMRHLST [V16F] | 3.4
FSLKTFKRKSEVERAWKRMRHLST [V16W] | 1.76
FSLKTFKRKSEVERAQKRMRHLST [V16Q] | 2.92
FSLKTFKRKSEVERASKRMRHLST [V16S] | 2.57
FSLKTFKRKSEVERACKRMRHLST [V16C] | 2.48
FSLKTFKRKSEVERAGKRMRHLST [V16G] | 2.71
FSLKTFKRKSEVERAYKRMRHLST [V16Y] | 2.1
FSLKTFKRKSEVERAAKRMRHLST [V16A] | 2.82
FSLKTFKRKSEVERALKRMRHLST [V16L] | 1.51
FSLKTFKRKSEVERARKRMRHLST [V16R] | 2.48
FSLKTFKRKSEVERAMKRMRHLST [V16M] | 2.93
FSLKTFKRKSEVERAEKRMRHLST [V16E] | 2.43
FSLKTFKRKSEVERATKRMRHLST [V16T] | 3.1
FSLKTFKRKSEVERADKRMRHLST [V16D] | 2.15
FSLKTFKRKSEVERAIKRMRHLST [V16I] | 2.07
FSLKTFKRKSEVERAPKRMRHLST [V16P] | 2.33
